The values below come from paper PMC3196555.

Assay [1] deals with myc-SH2B3 (human) (UniProt Q9UQQ2). As to the kind of experiment: co-IP; 293T cells transfected with pCMV5-TrkA and a myc construct, 100 ng/ml NGF for 15 min; RIPA lysate precipitated with anti-myc antibody, blotted with anti-myc and anti-TrkA.
Assay [2] addresses TrkA (UniProt P35739). Nature of the assay: co-IP; 293T cells transfected with pCMV5-TrkA and a myc construct, 100 ng/ml NGF for 15 min; RIPA lysate precipitated with anti-TrkA antibody, blotted with anti-TrkA and anti-myc.

Sequence of TrkA (P35739 33-799): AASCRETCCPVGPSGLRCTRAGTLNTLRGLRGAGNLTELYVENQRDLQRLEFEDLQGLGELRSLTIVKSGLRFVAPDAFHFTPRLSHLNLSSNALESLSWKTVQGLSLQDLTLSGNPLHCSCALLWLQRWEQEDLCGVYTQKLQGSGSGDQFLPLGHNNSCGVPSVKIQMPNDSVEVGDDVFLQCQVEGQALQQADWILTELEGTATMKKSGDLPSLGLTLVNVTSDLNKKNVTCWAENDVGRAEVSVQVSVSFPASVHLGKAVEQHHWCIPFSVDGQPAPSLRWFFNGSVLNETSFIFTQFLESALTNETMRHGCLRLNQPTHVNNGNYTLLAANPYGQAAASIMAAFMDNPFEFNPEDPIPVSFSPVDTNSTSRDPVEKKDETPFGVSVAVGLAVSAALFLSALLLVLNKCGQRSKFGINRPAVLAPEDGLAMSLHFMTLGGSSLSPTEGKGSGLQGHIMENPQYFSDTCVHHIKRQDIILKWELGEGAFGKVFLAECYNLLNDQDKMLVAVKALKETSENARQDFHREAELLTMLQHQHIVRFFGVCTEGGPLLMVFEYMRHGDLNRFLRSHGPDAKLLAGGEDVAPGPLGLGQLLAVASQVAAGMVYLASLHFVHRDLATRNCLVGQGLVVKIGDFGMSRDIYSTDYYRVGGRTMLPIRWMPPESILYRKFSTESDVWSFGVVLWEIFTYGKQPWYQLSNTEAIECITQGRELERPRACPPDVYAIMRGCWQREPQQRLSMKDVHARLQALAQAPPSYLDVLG

In assay [1], “TrkA (from UniProt P35739 33-799) (receptor)” had a relative amount of TrkA co-precipitated, as percent of that with SH2B1β of 10%.
In assay [2], “myc-SH2B3 (from UniProt Q9UQQ2 1-575) (natural protein)” gave a relative amount co-precipitated with TrkA, as percent of SH2B1β of 88%.
